Experimental data as given in US20200079850A1 (SUTRO BIOPHARMA, published 2020).
One block for each binder: values may come before it.

Experiments:
[1] = target: PD-1 (residues 1-199) C-terminally fused to the beta-galactosidase enzyme acceptor (EA) fragment, on U2OS … (human, UniProt Q15116 25-199); assay: cell-based or functional assay
[2] = target: LAG3 (residues 1-477) C-terminally fused to the beta-galactosidase ProLink (PK) fragment, on U2OS cells (human); assay: cell-based or functional assay
[3] = target: T1, hPD1 (Acro Biosystems), SPR analyte (human, UniProt Q15116 25-167); assay: SPR (Biacore), antibody captured by anti-Fc, hPD1 as analyte, 25 C
T1 construct: also called human PD1 kinetics
Protocol: (§1) Anti-Fc polyclonal antibodies were immobilized onto a CMS chip (GE Life Sciences) using amine coupling chemistry (from Amine Coupling Kit, GE Life Sciences). The immobilization steps were carried out at a flow rate of 25 μl/min in 1×HBS-EP+buffer (GE Life Sciences; 10× Stock diluted before use). The sensor surfaces were activated for 7 min with a mixture of NHS (0.05 M) and EDC (0.2 M). The Anti-Fc antibodies were injected over all 4 flow cells at a concentration of 25 ug/ml in 10 mM sodium acetate, pH 4.5, for 7 min. Ethanolamine (1 M, pH 8.5) was injected for 7 min to block any remaining activated groups. An average of 12,000 response units (RU) of capture antibody was immobilized on each flow cell.
(§2) Kinetic binding experiments were performed at 25° C. using 1×HBS-EP+buffer. Test and control antibodies were injected over the anti-Fc surface at concentrations of 5-10 μg/mL for 12 seconds at a flow rate of 10 μl/min on flow cells 2, 3 and 4, followed by a buffer wash for 30 seconds at the same flow rate. Kinetic characterization of antibody samples was carried out with a dilution series of antigen and 1 injection of 0 nM antigen. After capturing ligand (antibody) on the anti-Fc surface, the analyte (hPD1 or hLAG3, Acro Biosystems, Newark, Del.) was bound at 100, 25, 6.25 and 0 nM for 180 seconds, followed by a 450 second dissociation phase at a flow rate of 50 μl/min. Between each ligand capture and analyte binding cycle, regeneration was carried out using 2 injections of 10 mM Glycine pH 2.0 for 30 seconds at 30 μL/min, followed by a 30 second buffer wash step.
(§3) The data was fit with the Biacore T200 Evaluation software, using a 1:1 Langmuir binding model. KD (affinity, nM) was determined as a ratio of the kinetic rate constants calculated from the fits of the association and dissociation phases.

[4] = target: T2, hLAG3 (Acro Biosystems), SPR analyte (human, UniProt P18627 23-450); assay: SPR (Biacore), antibody captured by anti-Fc, hLAG3 as analyte, 25 C
T2 construct: also called human LAG3 kinetics
T2 sequence: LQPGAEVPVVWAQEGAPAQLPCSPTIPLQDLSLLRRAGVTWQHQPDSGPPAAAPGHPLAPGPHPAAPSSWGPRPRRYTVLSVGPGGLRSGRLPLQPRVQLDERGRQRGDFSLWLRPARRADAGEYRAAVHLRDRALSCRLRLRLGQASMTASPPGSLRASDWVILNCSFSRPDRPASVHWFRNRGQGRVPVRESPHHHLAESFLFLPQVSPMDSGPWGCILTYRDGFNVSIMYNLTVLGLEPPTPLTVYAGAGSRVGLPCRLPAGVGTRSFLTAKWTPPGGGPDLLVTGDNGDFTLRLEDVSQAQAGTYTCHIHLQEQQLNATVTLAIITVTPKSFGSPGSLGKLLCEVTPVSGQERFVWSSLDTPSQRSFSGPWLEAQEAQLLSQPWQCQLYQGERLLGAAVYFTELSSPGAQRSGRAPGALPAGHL
Protocol: as §1, §2, §3

[5] = target: T3, rabbit Fc-tagged recombinant human PD1 (rhPD1-rabbit Fc) (human, UniProt Q15116 25-167, limits assumed); assay: flow cytometry competition: inhibition of rhPD1-rabbit Fc binding to human PD-L1 on CHO cells; PE anti-rabbit IgG detection
T3 construct: also called recombinant human PD-1 protein
Protocol: CHO-k cells stably expressing human PD-L1 or PD-L2 were used to measure the ability of anti-PD1/LAG3 bi-specific antibody constructs to block rabbit Fc-tagged recombinant human PD1 (rhPD1-rabbit Fc) protein binding. Cells were seeded at 100,000 cells/well in 100 μL of FACS buffer in 96-well polypropylene plates. The cells were centrifuged and resuspended with test antibodies (2× concentration) diluted in FACS buffer, immediately followed by equal volume of rhPD1-rabbit Fc (added at 2× concentration; 0.2 ng/mL and 0.1 ng/mL final for PD-L1 and PD-L2, respectively). Cells were incubated on ice for 1 hour and washed twice. rhPD1-rabbit Fc binding on CHO-human PD-L1 or PD-L2 cells was detected with R-Phycoerythrin AffiniPure F(ab′)₂ Fragment Goat Anti-Rabbit IgG (H+L) (1:200 dilution, Jackson ImmunoResearch) for 30 minutes. The cells were washed twice with FACS buffer, fixed in 4% paraformaldehyde in PBS for 20 mins on ice in the dark, washed twice with FACS buffer, and analyzed using the BD LSR II Flow Cytometer. Data were analyzed using FlowJo (FlowJo, LLC; Ashland, Oreg.) to determine mean fluorescence intensities. Prism 6 software was used to create one site, specific binding with Hill slope curves (Log transform) to determine IC₅₀ values.

[6] = target: T4, human PD-1 expressed on the surface of CHO cells (human, UniProt Q15116 25-288); assay: flow cytometry cell binding on CHO cells expressing human PD-1; PE anti-human IgG detection; one site-specific binding with Hill slope fit
T4 construct: I took it as human PD-1; also called CHO-PD1
Protocol: CHO-k cells stably expressing PD-1 or LAG3 (human or cynomolgus) on the cell surface were used to assess binding affinity of anti-PD-1/LAG3 bispecific antibody constructs. Cells were seeded at 100,000 cells/well in 100 μL of FACS buffer (1×PBS, 0.5% BSA, 0.1% sodium azide) in 96-well polypropylene plates. The cells were centrifuged at 1.5K rpm and resuspended with test antibodies diluted in FACS buffer and incubated on ice for 1 hour. The cells were washed twice with FACS buffer and incubated on ice for 30 mins with R-Phycoerythrin-AffiniPure F(ab′)2 Fragment Goat Anti-Human IgG (H+L) secondary detection antibody (1:200 dilution, Jackson ImmunoResearch Laboratories, West Grove, Pa.). The cells were washed twice with FACS buffer, fixed in 4% paraformaldehyde in PBS (Santa Cruz Biotechnology; Dallas, Tex.) for 20 mins on ice in the dark, washed twice with FACS buffer, and analyzed using the BD LSR II Flow Cytometer (BD Biosciences; San Jose, Calif.). Data were analyzed using FlowJo (FlowJo, LLC; Ashland, Oreg.) to determine mean fluorescence intensities. Binding constants were calculated using the statistical software, GraphPad Prism (GraphPad Software; La Jolla, Calif.) using the nonlinear regression equation, one site—specific binding with Hill slope. The secondary antibody by itself was used as a control.

T1 sequence (Q15116 25-167 limits assumed): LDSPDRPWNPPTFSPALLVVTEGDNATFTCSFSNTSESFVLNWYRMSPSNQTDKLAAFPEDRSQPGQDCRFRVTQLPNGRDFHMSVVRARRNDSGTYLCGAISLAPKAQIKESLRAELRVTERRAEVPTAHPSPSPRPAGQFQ
T4 sequence (Q15116 25-288 limits assumed): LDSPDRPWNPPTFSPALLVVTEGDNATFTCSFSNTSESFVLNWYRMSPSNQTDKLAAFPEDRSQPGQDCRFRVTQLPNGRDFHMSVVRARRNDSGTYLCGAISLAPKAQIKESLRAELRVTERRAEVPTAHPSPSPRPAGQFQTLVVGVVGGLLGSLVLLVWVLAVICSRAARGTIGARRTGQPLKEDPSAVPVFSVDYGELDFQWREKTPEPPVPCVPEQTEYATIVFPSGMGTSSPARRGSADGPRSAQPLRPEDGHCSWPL
T3 sequence (Q15116 25-167 limits assumed): as the sequence (Q15116 25-167 limits assumed) above
LAG3 (residues 1-477) C-terminally fused to the beta-galactosidase ProLink (PK) fragment, on U2OS cells (human), sequence (P18627 1-477): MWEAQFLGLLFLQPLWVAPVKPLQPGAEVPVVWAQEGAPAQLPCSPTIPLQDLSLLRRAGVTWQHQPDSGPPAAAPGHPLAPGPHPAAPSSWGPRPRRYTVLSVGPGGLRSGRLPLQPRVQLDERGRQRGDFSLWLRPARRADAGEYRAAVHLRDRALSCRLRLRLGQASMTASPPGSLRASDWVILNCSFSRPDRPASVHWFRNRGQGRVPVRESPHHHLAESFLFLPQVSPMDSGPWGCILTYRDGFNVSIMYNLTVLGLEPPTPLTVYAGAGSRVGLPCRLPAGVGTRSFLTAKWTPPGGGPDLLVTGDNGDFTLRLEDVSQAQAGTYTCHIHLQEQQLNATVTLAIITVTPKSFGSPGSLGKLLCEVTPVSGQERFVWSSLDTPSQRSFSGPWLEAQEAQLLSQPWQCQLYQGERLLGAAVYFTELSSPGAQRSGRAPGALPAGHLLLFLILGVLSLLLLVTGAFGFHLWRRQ

- EC50 of beta-galactosidase enzyme-fragment complementation (RLU) on U2OS cells co-expressing PD-1-EA and LAG3-PK; PD-1/LAG3 cell bridging, needs both targets [1]: 0.16 nM
- EC50 of beta-galactosidase enzyme-fragment complementation (RLU) on U2OS cells co-expressing PD-1-EA and LAG3-PK; PD-1/LAG3 cell bridging, needs both targets [2]: 0.16 nM
- Kd [3]: 4.37 nM
- koff [3]: 0.00487 s⁻¹
- kon [3]: 1.12e+06 M⁻¹ s⁻¹
- Kd [4]: 0.0944 nM
- koff [4]: 0.000138 s⁻¹
- kon [4]: 1.46e+06 M⁻¹ s⁻¹
- IC50 [5]: 4.7 nM
- Bmax [6]: 1970 MFI
- Kd [6]: 4.3 nM
B1: PD-1/LAG3 Bi-specific Construct B: aPD1 1353-G10 scFvFc zwB R28T/P30D/H31S V262E; aLAG3 1449-G09.2 Fab zwA V262E (bispecific antibody, human IgG1, kappa)
scFv: EVQLVQSGAEVKKPGASVKVSCKASGYTFDSYGISWVRQAPGQGLEWMGWISAYNGNTNYAQKLQGRVTMTTDTSTNTAYMELRSLRSDDTAVYYCARDVDYGTGSGYWGQGTLVTVSSGGGGSGGGGSGGGGSSYELTQPPSVSVSPGQTARITCSGDALPKQYAYWYQQKPGQAPVMVIYKDTERPSGIPERFSGSSSGTKVTLTISGVQAEDEADYYCQSADNSITYRVFGGGTKVTVLAAGSDQEPKSSDKTHTCPPCPAPELLGGPSVFLFPPKPKDTLMISRTPEVTCEVVDVSHEDPEVKFNWYVDGVEVHNAKTKPREEQYNSTYRVVSVLTVLHQDWLNGKEYKCKVSNKALPAPIEKTISKAKGQPREPQVYVLPPSREEMTKNQVSLLCLVKGFYPSDIAVEWESNGQPENNYLTWPPVLDSDGSFFLYSKLTVDKSRWQQGNVFSCSVMHEALHNHYTQKSLSLSPGK
heavy: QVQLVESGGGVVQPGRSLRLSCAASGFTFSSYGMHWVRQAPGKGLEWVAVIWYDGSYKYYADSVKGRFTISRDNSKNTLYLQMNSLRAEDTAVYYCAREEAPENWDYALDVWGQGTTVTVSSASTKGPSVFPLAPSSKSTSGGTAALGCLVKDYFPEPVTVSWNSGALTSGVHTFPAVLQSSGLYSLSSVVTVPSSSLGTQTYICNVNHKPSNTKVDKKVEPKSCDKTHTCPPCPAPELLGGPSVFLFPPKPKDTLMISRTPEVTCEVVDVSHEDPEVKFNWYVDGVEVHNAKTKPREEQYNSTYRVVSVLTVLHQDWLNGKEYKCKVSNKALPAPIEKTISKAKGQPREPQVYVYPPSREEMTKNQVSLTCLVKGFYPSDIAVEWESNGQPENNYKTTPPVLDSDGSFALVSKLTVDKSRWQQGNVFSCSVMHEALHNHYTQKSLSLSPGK
light: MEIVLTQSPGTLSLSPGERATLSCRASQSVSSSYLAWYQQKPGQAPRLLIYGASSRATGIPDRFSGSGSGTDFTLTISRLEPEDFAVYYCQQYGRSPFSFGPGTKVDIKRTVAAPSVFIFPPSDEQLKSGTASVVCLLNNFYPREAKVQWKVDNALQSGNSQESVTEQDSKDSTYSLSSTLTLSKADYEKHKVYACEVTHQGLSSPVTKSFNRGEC
notes: The N-terminal Met is not included

- EC50 of beta-galactosidase enzyme-fragment complementation (RLU) on U2OS cells co-expressing PD-1-EA and LAG3-PK; PD-1/LAG3 cell bridging, needs both targets [1]: 0.13 nM
- EC50 of beta-galactosidase enzyme-fragment complementation (RLU) on U2OS cells co-expressing PD-1-EA and LAG3-PK; PD-1/LAG3 cell bridging, needs both targets [2]: 0.13 nM
- Kd [3]: 1.29 nM
- koff [3]: 0.000649 s⁻¹
- kon [3]: 503000 M⁻¹ s⁻¹
- Kd [4]: 0.519 nM
- koff [4]: 0.000694 s⁻¹
- kon [4]: 1.34e+06 M⁻¹ s⁻¹
- IC50 [5]: 2.4 nM
- Bmax [6]: 3660 MFI
- Kd [6]: 1.5 nM
B2: PD-1/LAG3 Bi-specific Construct C: aPD1 1353-G10 Vk1-39LC scFvFc zwB V262E; aLAG3 1449-G09.2 Fab zwA V262E (bispecific antibody, human IgG1, kappa)
scFv: EVQLVQSGAEVKKPGASVKVSCKASGYRFPHYGISWVRQAPGQGLEWMGWISAYNGNTNYAQKLQGRVTMTTDTSTNTAYMELRSLRSDDTAVYYCARDVDYGTGSGYWGQGTLVTVSSGGGGSGGGGSGGGGSDIQLTQSPSSLSASVGDRVTITCSGDALPKQYAYWYQQKPGKAPKLLIYKDTERPSGVPSRFSGSSSGTKVTLTISSLQPEDFATYYCQSADNSITYRVFGGGTKVEIKAAGSDQEPKSSDKTHTCPPCPAPELLGGPSVFLFPPKPKDTLMISRTPEVTCEVVDVSHEDPEVKFNWYVDGVEVHNAKTKPREEQYNSTYRVVSVLTVLHQDWLNGKEYKCKVSNKALPAPIEKTISKAKGQPREPQVYVLPPSREEMTKNQVSLLCLVKGFYPSDIAVEWESNGQPENNYLTWPPVLDSDGSFFLYSKLTVDKSRWQQGNVFSCSVMHEALHNHYTQKSLSLSPGK
heavy: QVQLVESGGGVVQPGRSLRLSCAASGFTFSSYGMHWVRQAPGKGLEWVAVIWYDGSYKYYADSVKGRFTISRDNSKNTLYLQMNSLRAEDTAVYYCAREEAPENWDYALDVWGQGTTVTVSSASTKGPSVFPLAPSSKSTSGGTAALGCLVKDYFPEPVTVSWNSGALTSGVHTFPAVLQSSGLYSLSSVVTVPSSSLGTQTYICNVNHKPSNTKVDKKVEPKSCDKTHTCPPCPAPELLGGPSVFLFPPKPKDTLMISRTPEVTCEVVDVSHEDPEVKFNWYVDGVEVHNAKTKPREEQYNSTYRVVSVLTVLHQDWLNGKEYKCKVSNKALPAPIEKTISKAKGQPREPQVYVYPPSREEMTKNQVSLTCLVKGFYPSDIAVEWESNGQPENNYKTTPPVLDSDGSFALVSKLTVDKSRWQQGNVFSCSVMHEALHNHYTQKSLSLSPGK
light: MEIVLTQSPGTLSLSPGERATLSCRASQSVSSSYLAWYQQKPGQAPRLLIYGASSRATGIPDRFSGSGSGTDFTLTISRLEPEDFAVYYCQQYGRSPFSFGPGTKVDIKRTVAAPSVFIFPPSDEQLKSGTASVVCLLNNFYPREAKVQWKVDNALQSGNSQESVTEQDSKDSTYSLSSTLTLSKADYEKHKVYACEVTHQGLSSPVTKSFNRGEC
notes: as for B1
